Laboratory results reported in publication PMC8789080.
Numbering of substitutions follows the chain as printed. Numbers in names are those of the source. Like-named read-outs stand apart in the source and are kept apart here.

Legend:
Test in all cases: EMSA
[1] = target: T1, 6H-QseC2 (Mesorhizobium japonicum R7A, UniProt A0ABX6MZB7 1-81)
[2] = target: T1, 6H-QseC2; remark: listed apart in the source
[3] = target: T1, 6H-QseC2; remark: listed apart in the source
[4] = target: T1, 6H-QseC2; remark: listed apart in the source

B1: O2L EMSA (O2R scrambled) (dsDNA)
DNA 1: TACGTGGTTGAATGCTCGACACTACATGGCGCGGTTTGCCTTGTGGATTGCAAATATATCCTAAAATGGGATAGAACTACTGGTAACGTAGTTGATGAGCCGGTTCCCTTCTGGCCGGTTCATCTGATGCAGCGTGCGCTACTAGTTCCCGTA
DNA 2: TACGGGAACTAGTAGCGCACGCTGCATCAGATGAACCGGCCAGAAGGGAACCGGCTCATCAACTACGTTACCAGTAGTTCTATCCCATTTTAGGATATATTTGCAATCCACAAGGCAAACCGCGCCATGTAGTGTCGAGCATTCAACCACGTA
- binding result [1]: binds

B2: O2L-O2R EMSA (dsDNA)
DNA 1: TACGTGGTTGAATGCTCGACACTACATGGCGCGGTTTGCCTTGTGGATTGCAAATATATCCTAAAATGGGATAATCCGAAACTGGGATTAGTTGATGAGCCGGTTCCCTTCTGGCCGGTTCATCTGATGCAGCGTGCGCTACTAGTTCCCGTA
DNA 2: TACGGGAACTAGTAGCGCACGCTGCATCAGATGAACCGGCCAGAAGGGAACCGGCTCATCAACTAATCCCAGTTTCGGATTATCCCATTTTAGGATATATTTGCAATCCACAAGGCAAACCGCGCCATGTAGTGTCGAGCATTCAACCACGTA
- binding result [2]: binds

B3: O2R EMSA (O2L scrambled) (dsDNA)
DNA 1: B2 DNA 1 with A58G, T59A, C60G, C61T, A63C, A66T, T67C, G68T, G70A, T72A
DNA 2: B2 DNA 2 with A82T, C84T, C86A, A87G, T88A, T91G, G93A, G94C, A95T, T96C
- binding result [3]: binds

B4: RDM2 EMSA (both scrambled) (dsDNA)
DNA 1: TACGTGGTTGAATGCTCGACACTACATGGCGCGGTTTGCCTTGTGGATTGCAAGTCCAGATAGAAACGGACATATTGATTATTAATTAGCGCTGATGAGCCGGTTCCCTTCTGGCCGGTTCATCTGATGCAGCGTGCGCTACTAGTTCCCGTA
DNA 2: TACGGGAACTAGTAGCGCACGCTGCATCAGATGAACCGGCCAGAAGGGAACCGGCTCATCAGCGCTAATTAATAATCAATATGTCCGTTTCTATCTGGACTTGCAATCCACAAGGCAAACCGCGCCATGTAGTGTCGAGCATTCAACCACGTA
- binding result [4]: no binding
